For one experiment, the system named is transportin-1 (TNPO1). Particulars: cited from earlier work. The source says: CIRBP, a nuclear protein known for its role in regulating mRNA stability and DNA repair, translocates from the nucleus to the cytoplasm under stress condition, forming stress granules[31],[32]. It is a typical RNA-binding pro ... || page 4: REVIEWER COMMENTS Comments are highlighted with a green background Reviewer #1 (Remarks to the Author) TNPO3 is an important karyopherin involved in some human pathologies and HIV-1 infection. Its best characterized biological function is in nuclear import of SR and SR-like repeat containing proteins, such as SFRS1 and CPSF6. […] Intriguingly, TNPO3 engages these alternative NLSs via the same region, which it ...

In a further experiment the target is T1, TNPO3 WT (Homo sapiens, UniProt Q9Y5L0).
T1 sequence (Q9Y5L0 1-923): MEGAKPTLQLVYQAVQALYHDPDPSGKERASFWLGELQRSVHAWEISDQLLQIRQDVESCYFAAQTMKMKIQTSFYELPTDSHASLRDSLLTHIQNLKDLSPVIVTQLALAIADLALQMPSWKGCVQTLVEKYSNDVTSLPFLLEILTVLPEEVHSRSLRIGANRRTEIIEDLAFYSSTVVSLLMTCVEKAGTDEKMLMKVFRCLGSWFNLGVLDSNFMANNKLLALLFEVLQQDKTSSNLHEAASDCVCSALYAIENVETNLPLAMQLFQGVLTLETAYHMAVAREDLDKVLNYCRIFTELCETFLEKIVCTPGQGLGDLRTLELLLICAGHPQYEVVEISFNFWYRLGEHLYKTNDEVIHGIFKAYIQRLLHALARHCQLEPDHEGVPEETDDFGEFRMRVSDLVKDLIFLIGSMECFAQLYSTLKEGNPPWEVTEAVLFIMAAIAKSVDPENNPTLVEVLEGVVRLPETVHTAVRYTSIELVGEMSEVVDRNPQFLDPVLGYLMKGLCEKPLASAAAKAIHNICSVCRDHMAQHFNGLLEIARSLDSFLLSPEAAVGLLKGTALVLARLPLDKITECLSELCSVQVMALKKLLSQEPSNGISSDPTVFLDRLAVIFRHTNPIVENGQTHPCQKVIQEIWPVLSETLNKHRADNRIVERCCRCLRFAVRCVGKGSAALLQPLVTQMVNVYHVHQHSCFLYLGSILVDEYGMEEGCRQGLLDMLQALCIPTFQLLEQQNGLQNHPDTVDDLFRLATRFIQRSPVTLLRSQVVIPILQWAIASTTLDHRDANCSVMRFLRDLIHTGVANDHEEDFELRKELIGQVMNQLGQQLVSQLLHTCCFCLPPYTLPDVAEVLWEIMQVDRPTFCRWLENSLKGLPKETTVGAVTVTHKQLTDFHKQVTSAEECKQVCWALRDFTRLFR
Nature of the experiment: ITC, ligand titrated into TNPO3 WT. Type of experiment: binding. Particulars: ITC, TNPO3 WT. On the procedure:
(§1) ITC has been performed by a Malvern Microcal VP-ITC at 25 °C for all binding studies. Samples have been dissolved in Tris buffer containing 50 mM Tris–HCl, 150 mM NaCl, 2 mM TCEP, and 0.04% NaN3 at pH 7.5. Binding studies of CIRBP^RSY and SRSF1^RS were performed with TNPO3 WT, and studies of CIRBP (157–172) and its mutants/phosphorylations were performed with TNPO3 C511A, respectively. Injection has been carried out by a syringe containing ligand solution of 100 μM, which adds ligand step-wise into the cell containing 10 μM TNPO3 during 28 injections of 10 μL each. Data analysis, curve fitting, and calculation of Kd, ΔH, and ΔS have been carried out using Origin-based 7.0 software provided by the manufacturer. All replicated ITC data are shown in Supplementary Fig. 6 and Supplementary Table 1.
(In general: In ITC the heat of successive injections is recorded.)

A further experiment deals with T2, TNPO3 C511A (Homo sapiens, UniProt Q9Y5L0, C511A).
T2 construct: full-length (FL) WT human TNPO3 were generated by synthesizing codon-optimized DNA fragments; His6 (N, cleaved yes); protein A (N, cleaved yes); made in house; host or cells: Escherichia coli BL21-(DE3) Star
T2 sequence (Q9Y5L0 1-923 C511A): T1 sequence (Q9Y5L0 1-923) with C511A
Nature of the experiment: ITC, ligand titrated into TNPO3 C511A. Type of experiment: binding. Particulars: TNPO3 C511A. How it is done:
as §1

For experiment [1], the system named is TNPO3. Briefly: NMR binding studies with TNPO3 (1H-15N HSQC, 1H-13C HMQC, 1H 1D, STD). More on the design: species or system human. On the procedure:
All NMR studies for TNPO3 were carried out using the wild type protein. Protein samples for ^1H-^13C HMQC were prepared at a concentration of 100 μM and equilibrated in a buffer containing 50 mM Tris–HCl, pH 6.7, 150 mM NaCl, 2 mM TCEP and 10% D2O. Spectral acquisitions for TNPO3 free and in complex with CIRBP^RSY and SRSF1^RS, respectively were performed at 298 K on a 700 MHz Bruker Avance III NMR spectrometer equipped with a TCI triple-resonance cryoprobe. The pulse program was sfhmqcf2gpph and the spectra were recorded with 32 scans, interscan delay of 1 s, 160 points in F1, 1024 points in F2, 5283.879 Hz spectral width in F1, and 11,160.714 Hz spectral width in F2. Spectra were processed using Topspin 4.1.3.
Spectral acquisitions for TNPO3 free and in complex with mCIRBP^RSY, pCIRBP^RSY, and pSRSF1^RS, respectively, were performed at 298 K on a 600 MHz Bruker Avance Neo NMR spectrometer equipped with a TXI 600S3 probehead. The pulse program was hmqcgpphwg and the spectra were recorded with 64 scans, interscan delay of 1 s, 200 points in F1, 1024 points in F2, 4545.455 Hz spectral width in F1, and 7812.500 Hz spectral width in F2. Spectra were processed using Topspin 4.3.0.
For ^1H-^15N HSQC spectra, protein samples were equilibrated in a buffer containing 50 mM Tris–HCl, pH 6.7, 150 mM NaCl, 2 mM TCEP, 0.04% NaN3, and 10% D2O (with additional 20 mM MgCl2 for CIRBP phosphorylation kinetics). Data were recorded at 298 K on the 600 MHz Bruker Avance Neo NMR spectrometer equipped with a TXI 600S3 probehead. The pulse program was hsqcetfpf3gpsi and was recorded with 8-16 scans, interscan delay of 1 s, 128 points in F1, 1024 points in F2, 1949.318 Hz spectral width in F1, and 9615.385 Hz spectral width in F2. Spectra were processed using Topspin 4.3.0.

Experiment [2] concerns the target TNPO3. Particulars: SAXS, monomer/dimer equilibrium; read-out: dissociation constant of TNPO3 dimerization in solution; cited from earlier work. The source says: We next aimed to gain insight into the structural basis for TNPO3 recognition of RSY-NLS and obtained crystals of TNPO3 C511A bound to CIRBP^RSY that diffracted X-rays to 2.94 Å resolution. This TNPO3 mutant was used for the determination of the 3D X-ray structure of the TNPO3-SRSF1 complex and increases TNPO3 stability. […] TNPO3 forms a dimer in the asymmetric unit of the crystal structure, as previously observed ... || page 9: Figure 2: Is TNPO3 a monomer in solution? In order for the reader to understand where are the additional contact points described in Sup Fig 2, a global view of the different contact points would be helpful. […] Out of the additional contact points in the crystal structure, the intermolecular salt bridge of E304 with K877 is the only contact which we could observe in both directions (chain A – chain B and vice versa). We in ...

For experiment [3], the target named is T3, Transportin 3 (TNPO3), full-length wild type (human, UniProt Q9Y5L0 1-923).
T3 construct: Transportin 3 (TNPO3), human, full-length wild type; For the NMR experiments made 15N-labelled with 13C-methyl labelling of isoleucine and methionine side chains ([IM-methyl 13C]); Vector pETM11-His6-protein A with a TEV site downstream of the protein A tag; also called TNPO3 WT; TNPO3 FL WT; source: E. coli BL21-(DE3) Star, purified (Ni-NTA, TEV cleavage, second Ni-NTA, SEC Superdex 200); not …
T3 sequence (looked up): T1 sequence (Q9Y5L0 1-923)
Briefly: ITC; 100 µM ligand in the syringe injected (28 x 10 µL) into 10 µM TNPO3 (WT or C511A) in the cell; 25 °C; 50 mM Tris-HCl pH 7.5, 150 mM NaCl, 2 mM TCEP, 0.04% NaN3. Particulars: both partners purified.

The target of experiment [4] is T4, Transportin 3 (TNPO3) C511A mutant (human, UniProt Q9Y5L0 1-923, C511A).
T4 construct: Transportin 3 (TNPO3), human, C511A mutant that increases stability; Two chains in the asymmetric unit of 8CMK; source: E. coli BL21-(DE3) Star, purified (Ni-NTA, TEV cleavage, second Ni-NTA, SEC Superdex 200)
T4 sequence: T1 sequence (Q9Y5L0 1-923) with C511A
The description is as above. Particulars: both partners purified.

In experiment [5] the target is T5, Transportin 3 (TNPO3), full-length wild type (human, UniProt Q9Y5L0 1-923).
T5 chain: T1 sequence (Q9Y5L0 1-923)
Briefly: ITC.

Experiment [6] has as its target T5, Transportin 3 (TNPO3), full-length wild …. Briefly: ITC; rep2.
For experiment [7], the target named is T6, Transportin 3 (TNPO3) C511A mutant (human, UniProt Q9Y5L0 1-923, C511A).
T6 sequence: T1 sequence (Q9Y5L0 1-923) with C511A
Nature of the experiment: ITC.

Experiment [8] concerns the target Transportin 3 (TNPO3) C511A mutant (human) (UniProt Q9Y5L0). Briefly: ITC; 100 µM ligand in the syringe injected (28 x 10 µL) into 10 µM TNPO3 (WT or C511A) in the cell; 25 °C; 50 mM Tris-HCl pH 7.5, 150 mM NaCl, 2 mM TCEP, 0.04% NaN3.
In experiment [9] the target is T6, Transportin 3 (TNPO3) C511A mutant. Nature of the experiment: ITC. The source holds these as a separate data set.
The target is the same in experiment [10]. Briefly: ITC; rep2.
Experiment [11] addresses T3, Transportin 3 (TNPO3), full-length wild …. Briefly: NMR titration; 1H NMR spectra of 50 µM peptide free and with a stoichiometric amount (50 µM) of TNPO3 WT; line broadening of peptide signals. Particulars: both partners purified.

Changes are numbered by the printed parent chain. Where “and” joins values, the source holds several entries; their conditions need not be identical. Equal entries are not always repeated.

Sequence of Transportin 3 (TNPO3) C511A mutant (human) (Q9Y5L0 whole entry C511A): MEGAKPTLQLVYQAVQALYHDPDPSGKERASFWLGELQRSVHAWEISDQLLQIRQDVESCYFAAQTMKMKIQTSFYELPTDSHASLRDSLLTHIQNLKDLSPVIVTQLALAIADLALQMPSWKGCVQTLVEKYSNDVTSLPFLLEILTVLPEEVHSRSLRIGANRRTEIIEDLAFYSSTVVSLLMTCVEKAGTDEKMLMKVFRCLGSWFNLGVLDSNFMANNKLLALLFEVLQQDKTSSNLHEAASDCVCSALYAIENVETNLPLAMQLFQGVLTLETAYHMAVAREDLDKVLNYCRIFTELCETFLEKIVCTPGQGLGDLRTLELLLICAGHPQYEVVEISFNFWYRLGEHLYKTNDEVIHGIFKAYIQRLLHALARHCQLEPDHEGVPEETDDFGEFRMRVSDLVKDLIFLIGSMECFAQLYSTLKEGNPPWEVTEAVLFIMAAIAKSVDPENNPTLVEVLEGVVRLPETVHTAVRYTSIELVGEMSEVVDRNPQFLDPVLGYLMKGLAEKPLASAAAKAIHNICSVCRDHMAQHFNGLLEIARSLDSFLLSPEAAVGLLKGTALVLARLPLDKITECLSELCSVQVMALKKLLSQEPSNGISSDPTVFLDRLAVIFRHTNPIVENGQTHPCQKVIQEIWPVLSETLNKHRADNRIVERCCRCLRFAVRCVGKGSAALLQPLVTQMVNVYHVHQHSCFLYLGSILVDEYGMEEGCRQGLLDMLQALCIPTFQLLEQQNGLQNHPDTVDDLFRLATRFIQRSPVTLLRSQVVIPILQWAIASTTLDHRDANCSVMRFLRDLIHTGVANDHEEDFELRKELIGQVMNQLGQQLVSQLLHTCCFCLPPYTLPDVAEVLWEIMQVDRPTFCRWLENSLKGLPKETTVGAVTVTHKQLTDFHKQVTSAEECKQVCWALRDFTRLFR

Regarding “H-GSRDYYSSRSQSGGYSDRSSGGSYRDSYDSYATHNE-OH [CIRBP^RSY]”, the “fold lower binding affinity for TNPO1 than for TNPO3” value in the experiment with transportin-1 (TNPO1) is “approximately 70”. Further, the ΔS result at TNPO3 WT (replicate 1 (rep1)) was “–101 cal/mol/deg”; at TNPO3 WT (replicate 2 (rep2)), “–192 cal/mol/deg”; at TNPO3 C511A (rep1, reference for alanine mutation), “–124 cal/mol/deg”; at TNPO3 C511A (rep2, reference for alanine mutation), “–242 cal/mol/deg”. Moreover, the “change of peptide 1H 1D NMR signals with sub-stoichiometric TNPO3” value in the experiment with TNPO3 [1] (100 µM RSY regions and 10 µM TNPO3 (peer review reply)) is given as “slight decrease of peptide signal intensity”. The “chemical shift perturbations of TNPO3 methyl groups upon ligand addition (1H,13C HMQC)” value with TNPO3 [1] (100 µM [IM-methyl 13C] labeled TNPO3, one stoichiometric equivalent of ligand, 298 K, pH 6.7) is “led to CSPs of several TNPO3 ^1H,^13C cross-peaks”.
With “TNPO3: Transportin 3, nuclear import receptor; here its own monomer/dimer equilibrium”, at TNPO3 [2], the Kd is 8300 ± 1000 nM.

B1: RSY region of cold-inducible RNA-binding protein (CIRBP), residues 138-172 (domain or fragment, human, UniProt Q14011 138-172, looked up)
chain: SRDYYSSRSQSGGYSDRSSGGSYRDSYDSYATHNE
notes: Only residues 158-171 were modelled in PDB 8CMK; also called CIRBP^RSY; RSY-NLS; source: E. coli BL21-(DE3) Star, purified (denaturing lysis, Ni-NTA, TEV cleavage, second Ni-NTA, SEC Superdex 30); not shown: His6, N-terminal, cleaved; protein A, N-terminal, cleaved
Take B1: the Kd in experiment [3] was 610 ± 100 nM; in [4] it was 970 ± 130 nM; in experiment [5], 870 nM; in [6], 870 nM.

B2: CIRBP (157-172) synthetic peptide, wild type (peptide)
peptide: GGSYRDSYDSYATHNE
notes: also called mCIRBP^RSY; source: synthetic peptide (Peptide Specialty Laboratories GmbH)
Turning to B2, the Kd was 1180 nM in experiment [7]; 5780 nM in [8]; 6200 nM and 4240 nM in experiment [9]; 6200 nM in experiment [10]. In addition, in experiment [11], the binding result is “binds”.

The values are drawn from article PMC12075686, “Structural basis of phosphorylation-independent nuclear import of CIRBP by TNPO3” (Nature Communications, 2025).
